Reference: publication PMC9226502

B1: MutL^WT (Escherichia coli MutL protein, wild type) [Escherichia coli] / MutS [not stated] (parent)
chain 1: MPIQVLPPQLANQIAAGEVVERPASVVKELVENSLDAGATRIDIDIERGGAKLIRIRDNGCGIKKDELALALARHATSKIASLDDLEAIISLGFRGEALASISSVSRLTLTSRTAEQQEAWQAYAEGRDMNVTVKPAAHPVGTTLEVLDLFYNTPARRKFLRTEKTEFNHIDEIIRRIALARFDVTINLSHNGKIVRQYRAVPEGGQKERRLGAICGTAFLEQALAIEWQHGDLTLRGWVADPNHTTPALAEIQYCYVNGRMMRDRLINHAIRQACEDKLGADQQPAFVLYLEIDPHQVDVNVHPAKHEVRFHQSRLVHDFIYQGVLSVLQQQLETPLPLDDEPQPAPRSIPENRVAAGRNHFAEPAAREPVAPRYTPAPASGSRPAAPWPNAQPGYQKQQGEVYRQLLQTPAPMQKLKAPEPQEPALAANSQSFGRVLTIVHSDCALLERDGNISLLSLPVAERWLRQAQLTPGEAPVCAQPLLIPLRLKVSAEEKSALEKAQSALAELGIDFQSDAQHVTIRAVPLPLRQQNLQILIPELIGYLAKQSVFEPGNIAQWIARNLMSEHAQWSMAQAITLLADVERLCPQLVKTPPGGLLQSVDLHPAIKALKDE
chain 2: MSAIENFDAHTPMMQQYLRLKAQHPEILLFYRMGDFYELFYDDAKRASQLLDISLTKRGASAGEPIPMAGIPYHAVENYLAKLVNQGESVAICEQIGDPATSKGPVERKVVRIVTPGTISDEALLQERQDNLLAAIWQDSKGFGYATLDISSGRFRLSEPADRETMAAELQRTNPAELLYAEDFAEMSLIEGRRGLRRRPLWEFEIDTARQQLNLQFGTRDLVGFGVENAPRGLCAAGCLLQYAKDTQRTTLPHIRSITMEREQDSIIMDAATRRNLEITQNLAGGAENTLASVLDCTVTPMGSRMLKRWLHMPVRDTRVLLERQQTIGALQDFTAGLQPVLRQVGDLERILARLALRTARPRDLARMRHAFQQLPELRAQLETVDSAPVQALREKMGEFAELRDLLERAIIDTPPVLVRDGGVIASGYNEELDEWRALADGATDYLERLEVRERERTGLDTLKVGFNAVHGYYIQISRGQSHLAPINYMRRQTLKNAERYIIPELKEYEDKVLTSKGKALALEKQLYEELFDLLLPHLEALQQSASALAELDVLVNLAERAYTLNYTCPTFIDKPGIRITEGRHPVVEQVLNEPFIANPLNLSPQRRMLIITGPNMGGKSTYMRQTALIALMAYIGSYVPAQKVEIGPIDRIFTRVGAADDLASGRSTFMVEMTETANILHNATEYSLVLMDEIGRGTSTYDGLSLAWACAENLANKIKALTLFATHYFELTQLPEKMEGVANVHLDALEHGDTIAFMHSVQDGAASKSYGLAVAALAGVPKEVIKRARQKLRELESISPNAAATQVDGTQMSLLSVPEETSPAVEALENLDPDSLTPRQALEWIYRLKSLV

Variants of: B1
Assay: BLI
Details: with MutS, 100 nM MutS, end-blocked DNA substrate with a single mismatch, read off a plot; for response: top green curve (taken as 150 nM MutL), peak at about 200 s, parent: 3.3

koff (19 nM MutL, parent: 0.0053) [s⁻¹] | koff (37 nM MutL, parent: 0.0032) [s⁻¹] | koff (75 nM MutL, parent: 0.0031) [s⁻¹] | koff (150 nM MutL, parent: 0.0033) [s⁻¹] | response [nm] | Variant
0.0096 | 0.0092 | 0.0082 | 0.0075 | 2.1 | chain 1 H270A H319A
0.0063 | 0.0047 | 0.0038 | 0.0035 | 2.7 | chain 1 H270A
0.006 | 0.0046 | 0.0036 | 0.0038 | 2.7 | chain 1 H319A
